US20240191187A1, “MEDIA AND METHODS FOR GROWING MAMMARY ORGANOIDS” (STEMCELL TECHNOLOGIES CANADA INC., priority 2021, published 2024)

Tests used:
[1] = system: human mammary epithelial cells; test: Human mammary organoid cell lineage balance by flow cytometry; details: for cell lineage balance, BMP signaling modulators: ~50 ng/mL BMP2 or BMP4, ~25-200 ng/mL NOGGIN or ~10-100 nM LDN193189
[2] = system: mouse mammary epithelial cells; test: Mouse mammary organoid cell lineage balance by flow cytometry (EpCAM, CD49f); assay type: cell-based; details: non-sorted mouse cells; ~100 ng/mL NOGGIN and ~100 ng/mL RSPO-1 together vs free of both; 8 independent experiments; 14 days (P0)
Description: Panels A) and B) show representative images of organoids after cells were cultured for 14 days (P0) in an R-spondin-containing (panel A) or an R-spondin-free (panel B) medium. Cells of the organoids shown in panels A) and B) were respectively analyzed by flow cytometry for expression of EpCAM and CD49f (panels C) and D)). A summary of flow cytometry data is shown in panel E. Results were confirmed in n=8 mice. Scale bars are 500 μm.
A single cell suspension of mouse mammary epithelial cells was isolated from mammary glands, as follows. A resected mammary gland was minced and placed in a tube containing standard culture medium, including 50 μg/ml gentamycin, collagenase, and hyaluronidase. The mammary gland was incubated for 2 hours at 37° C. in the tissue incubator. Following the incubation, the cell dissociation mixture was washed in advanced DMEM and centrifuged at 300 g for 5 minutes. Depending on the appearance of the pellet, in some cases it is desirable to resuspend the pellet in ammonium chloride to lyse contaminating red blood cells. Following, the pellet is resuspended in 0.25% Trypsin-EDTA, as above, for 5 minutes at 37° C. and then centrifuged at (300 g for 5 minutes). The supernatant was discarded and the pellet was resuspended in a 100 μg/ml DNase solution for 1 minute at room temperature. […]

[3] = system: human mammary epithelial cells; test: Human mammary organoid formation, brightfield microscopy; assay type: cell-based
Description: Fragments of human mammary epithelial cells were isolated from tissue samples obtained from academic collaborators, as follows. Resected tissue samples were minced in a petri dish using a scalpel to cut in a cross-hatched pattern. The minced tissue samples were placed in a dissociation flask in standard culture medium supplemented with BSA, insulin, collagenase and hyaluronidase. The flask was gently shaken overnight on an orbital shaker placed in a 37° C. tissue incubator. The following morning the floating layer of fat was removed by pipette, and the remaining liquid was transferred to a tube and briefly centrifuged at low rpm (˜80 g for 30 seconds). The pellet (A pellet) was set aside and the supernatant was further centrifuged for an incrementally longer period of time and at an incrementally higher rpm (˜200 g for 4 minutes). The pellet (B pellet) was set aside and the supernatant was further centrifuged for a still incrementally longer period of time and at an incrementally higher rpm (˜450 g for 5 minutes).
Cryopreserved pellet A and pellet B were dissociated into a single cell suspension by treatment with 0.25% Trypsin-EDTA for 5 minutes at 37° C. (with intermittent trituration) and then centrifuged at (300 g for 5 minutes). The supernatant was discarded and the pellet was resuspended in a 100 μg/ml DNase solution for 1 minute at room temperature. […]

[4] = system: human mammary epithelial cells; test: Total cell count among formed human mammary organoids; assay type: cell-based
[5] = system: mouse mammary epithelial cells; test: Mouse mammary organoid formation, organoid organization by brightfield/confocal imaging; assay type: cell-based; details: for type of organoids formed from bulk (non-sorted) mammary epithelial cells: RSPO comprising media vs media free of RSPO (luminal-biased/cystic)
Description: A single cell suspension of mouse mammary epithelial cells was isolated from mammary glands, as follows. A resected mammary gland was minced and placed in a tube containing standard culture medium, including 50 μg/ml gentamycin, collagenase, and hyaluronidase. The mammary gland was incubated for 2 hours at 37° C. in the tissue incubator. Following the incubation, the cell dissociation mixture was washed in advanced DMEM and centrifuged at 300 g for 5 minutes. Depending on the appearance of the pellet, in some cases it is desirable to resuspend the pellet in ammonium chloride to lyse contaminating red blood cells. Following, the pellet is resuspended in 0.25% Trypsin-EDTA, as above, for 5 minutes at 37° C. and then centrifuged at (300 g for 5 minutes). The supernatant was discarded and the pellet was resuspended in a 100 μg/ml DNase solution for 1 minute at room temperature. The resulting cells were passed through a 37 μm strainer to obtain the single cell suspension.
Each well received between 0.5-1 mL of any one of the various culture media described herein.
The plated single cell suspension of mammary epithelial cells formed into organoids that were passaged approximately every 7-days, with 2-3 full medium changes during such 7-day period. To passage the organoids, the Matrigel domes were broken apart by pipetting in pre-warmed 0.25% Trypsin-EDTA, incubating at 37° C. for ˜ 5-15 minutes and pipetting again. The trypsinization reaction was inactivated by washing in an equal volume of Hanks Balanced Salt Solution supplemented with 2% FBS. Depending on the density and size of organoids a 1:2-1:5 split was performed, with the cells seeded as domes, as described above. Alternatively, cells would be strained through a 37 μm strainer to obtain the single cell suspension and seeded in Matrigel domes as described above.
Single cell suspensions of mouse mammary epithelial cells were obtained in accordance with Example 1. The single cell suspension was sorted using a BD FACSAria™ Fusion flow cytometer into three populations of cells corresponding to the ER^+, milk, and basal cell lineages, based on the differential expression of EpCAM, CD49f, and CD49b. Non-epithelial cells were further eliminated during the sorting strategy based on the expression of CD45, Ter119 and CD31. The sorted cells were seeded and cultured essentially as described in Example 2 in an organoid medium free of an exogenously-added inhibitor of BMP signaling and either comprising exogenously added RSPO-1 (˜100 ng/mL) or lacking exogenously added RSPO-1 (e.g. MammoCult™ Mouse Organoid Growth Medium, […] Technologies) (FIG. 2).
Organoid media were formulated to lack either exogenously added RSPO-1 or RSPO-3, and they were tested on single cell suspensions of bulk mammary epithelial cells, obtained in accordance with Example 1 and seeded and cultured as described in Example 2. […] Flow cytometry analysis of the cellular composition of organoids formed in either RSPO-comprising media or media lacking RSPO confirmed a reduction in the number of basal cells among organoids formed in the absence of WNT agonism (FIG. 3B).
In a follow-up experiment, organoids were formed from single cell suspensions obtained in accordance with Example 1, and seeded and cultured as described in Example 2. […] At the end of the second passage the formed organoids were processed and stained for K8, K14, and DAPI, as described in Example 3.
The foregoing experiments were performed in a medium that included an inhibitor of BMP signaling, thus the effect of BMP signaling inhibition on the formation of mouse mammary organoids was explored.

B1: NOGGIN: protein inhibitor of BMP signaling (protein, UniProt Q13253 28-232, looked up)
Noggin: QHYLHIRPAPSDNLPLVDLIEHPDPIFDPKEKDLNETLLRSLLGGHYDPGFMATSPPEDRPGGGGGAAGGAEDLAELDQLLRQRPSGAMPSEIKGLEFSEGLAQGKKQRLSKKLRRKLQMWLWSQTFCPVLYAWNDLGSRFWPRYVKVGSCFSKRSCSVPEGMVCKPSKSVHLTVLRWRCQRRGGQRCGWIPIQYPIISECKCSC
cell lineage balance, BMP signaling modulators ([1]; just prior to first passage): decreased the number of basal cells while increasing the number of luminal cells
lineage balance in medium free of NOGGIN and RSPO-1 vs medium comprising both [2]: a significant reduction of basal cells with a concomitant increase in luminal cells
formation of luminal organoids, single vs dual BMP signaling inhibitor ([3]; media comprising NOGGIN or LDN193189 alone vs both, successive passages): appeared sufficient to bias formation of luminal organoids

B2: BMP4: BMP signaling activator (protein, UniProt P12644 293-408, looked up)
Bone morphogenetic protein 4: SPKHHSQRARKKNKNCRRHSLYVDFSDVGWNDWIVAPPGYQAFYCHGDCPFPLADHLNSTNHAIVQTLVNSVNSSIPKACCVPTELSAISMLYLDEYDKVVLKNYQEMVVEGCGCR
cell lineage balance, BMP signaling modulators ([1]; just prior to first passage): significant increase in basal cells and reduction in luminal cells
total cell count among formed organoids, BMP signaling modulators ([4]; vs condition where BMP signaling not modulated or inhibited): a marked net loss of total cells

B3: RSPO-1: WNT signaling agonist, an R-spondin (protein, UniProt Q2MKA7 21-263, looked up)
R-spondin-1: SRGIKGKRQRRISAEGSQACAKGCELCSEVNGCLKCSPKLFILLERNDIRQVGVCLPSCPPGYFDARNPDMNKCIKCKIEHCEACFSHNFCTKCKEGLYLHKGRCYPACPEGSSAANGTMECSSPAQCEMSEWSPWGPCSKKQQLCGFRRGSEERTRRVLHAPVGDHAACSDTKETRRCTVRRVPCPEGQKRRKGGQGRRENANRNLARKESKEAGAGSRRRKGQQQQQQQGTVGPLTSAGPA
organization of organoids formed in the absence of RSPO-1 over three successive passages ([5]; non-sorted mouse cells, P0-P2, absence vs presence of RSPO-1, medium included BMP signaling inhibitor): cystic organization devoid of branching
type of organoids formed from bulk (non-sorted) mammary epithelial cells ([5]; non-sorted mouse cells): yielded a significant number of mixed organoids
organoid formation from sorted ER+ lineage cells ([5]; sorted mouse ER+ luminal cells, medium with ~100 ng/mL RSPO-1 vs lacking RSPO-1, no BMP signaling inhibitor): generally the same efficiency in either of the tested medium formulations
organoid organization from sorted basal lineage cells ([5]; sorted mouse basal lineage cells, RSPO-1 (~100 ng/mL) containing medium vs RSPO-1 deficient): a predominately mixed organization
organoid organization from sorted milk lineage cells ([5]; sorted mouse milk lineage cells, RSPO-1 (~100 ng/mL) containing medium vs RSPO-1 deficient (cystic)): a more mixed organization of basal, luminal and other cells
lineage balance in medium free of NOGGIN and RSPO-1 vs medium comprising both [2]: a significant reduction of basal cells with a concomitant increase in luminal cells
luminal-biased organoids with vs without exogenously-added RSPO-1 ([3]; luminal-promoting organoid medium, ~20-200 ng/mL RSPO-1): did not reveal a significant increase or reduction of luminal-biased organoids

B4: RSPO-3: WNT agonist, an R-spondin (protein, UniProt Q9BXY4 22-272, looked up)
R-spondin-3: QNASRGRRQRRMHPNVSQGCQGGCATCSDYNGCLSCKPRLFFALERIGMKQIGVCLSSCPSGYYGTRYPDINKCTKCKADCDTCFNKNFCTKCKSGFYLHLGKCLDNCPEGLEANNHTMECVSIVHCEVSEWNPWSPCTKKGKTCGFKRGTETRVREIIQHPSAKGNLCPPTNETRKCTVQRKKCQKGERGKKGRERKRKKPNKGESKEAIPDSKSLESSKEIPEQRENKQQQKKRKVQDKQKSVSVSTVH
type of organoids formed from bulk (non-sorted) mammary epithelial cells ([5]; non-sorted mouse cells): yielded a significant number of mixed organoids

B5: amphiregulin (protein, UniProt P15514 101-187, looked up)
Amphiregulin: SVRVEQVVKPPQNKTESENTSDKPKRKKKGGKNGKNRRNRKKKNPCNAEFQNFCIHGECKYIEHLEAVTCKCQQEYFGERCGEKSMK
notes: ligand of ERBB1
cell lineage balance, ERBB receptor family ligands ([1]; just prior to first passage, ~10-50 ng/mL AREG, ~10-50 ng/mL EGF, ~50-100 ng/mL NRG1): a minor or no effect on cell lineage balance
cell lineage balance across multiple experiments, ERBB ligands ([1]; normalized to control lacking ERBB modulators, mean of 2 experiments): minimal impact on luminal cell percentages but profound impact on increasing basal cell percentages
total cell count among formed organoids, ERBB modulators ([4]; vs control with no modulation of ERBB signaling): highest mitogenic activity

B6: TGFβ3: ligand of a TGFβ receptor (protein, UniProt P10600 301-412, looked up)
Transforming growth factor …: ALDTNYCFRNLEENCCVRPLYIDFRQDLGWKWVHEPKGYYANFCSGPCPYLRSADTTHSTVLGLYNTLNPEASASPCCVPQDLEPLTILYYVGRTPKVEQLSNMVVKSCKCS
cell lineage balance, TGFβ receptor ligands ([1]; ~50 ng/mL, just prior to first passage): results consistent with TGF β1
